Assay [1] deals with T1, recombinant human IL-17A (R&D Systems) (human, UniProt Q16552 24-155). Briefly: cell-based or functional assay.
Assay [2] addresses T1, recombinant human IL-17A (R&D Systems). Briefly: SPR, Biacore T-100; antibody immobilized on CM5 chip, rhIL17A 2.5-40 nM as analyte, single cycle kinetics. On the procedure: The surface was regenerated with a 30 second exposure of 10 mM Glycine-HCL pH 1.5. Single cycle kinetic analysis was performed on each antibody with the reference cell subtracted.
For orientation: SPR reads the build-up and loss of mass on a sensor chip optically.

Assay [3] has the same target. Briefly: cell-based or functional assay. The source holds these as a separate data set.
Assay [4] shares this target. Briefly: cell-based or functional assay. This is another data set of the same source.

T1 sequence (Q16552 24-155 limits assumed): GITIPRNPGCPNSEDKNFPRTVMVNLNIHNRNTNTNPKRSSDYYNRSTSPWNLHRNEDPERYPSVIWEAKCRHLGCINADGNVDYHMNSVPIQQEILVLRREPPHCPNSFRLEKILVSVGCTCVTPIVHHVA

B1: ABM60 (antibody, V domains shown)
VH: EVHLKESGPDLVAPSQSLSITCTVSGFSLTTYGVHWVRQPPGKGLEWLVVIWSDGLTTYNSALKSRLSISKDNSKSQVFLKMNSLRTDDTAMYYCARDYTYEYAMDYWGQGTTVTVSS
VL: DILLTQSPLSLPVSLGDQASISCRSSQSLVHSNGNTYLHWYLQKPGQSPKLLIYKVSNRFSGVPDRFSGSESGTDFTLKISRVEAEDLGVYFCSQSTHVPFTFGSGTKLEIKR
In the case of B1, in assay [1], the “IC50 (read off the curve), IL-6 in 3T3 cells” value is around 0.8 µg/mL. Moreover, in assay [2], the Kd (in general, the constant that tells how readily two partners part at equilibrium) amounted to 0.24 nM; the koff (as a rule, a measure of how fast the partners let go of each other) was determined as 5.65e-05 s⁻¹; the kon (as a rule, a measure of how fast the partners come together) came to 278000 M⁻¹ s⁻¹.

B2: ABM67 (antibody, V domains shown)
VH: EVKLVESGGGLVKPGGSLKLSCAASGFTFSSYAMSWVRQTPEKRLEWVATISSGGSYTYYPDSVKGRFTISRDNAKNTLYLQMSSLRSEDTAMYYCARQNWDAFVYWGQGTLVTASA
VL: DIVLTQSPAILSVSPGERVSFSCRAGQSIGTSIHWYQRRTNGSPRLLIKSASESISGIPSRFSGSGSGTDFTLSINSVESEDIADYYCQQSNSWPLTFGAGTKLEIKR
For B2, in assay [2], the Kd came out at 0.169 nM, the koff was found to be 0.000121 s⁻¹ and the kon was found to be 713000 M⁻¹ s⁻¹.

B3: Ixekizumab (antibody, V domains shown)
VH: QVQLVQSGAEVKKPGSSVKVSCKASGYSFTDYHIHWVRQAPGQGLEWMGVINPMYGTTDYNQRFKGRVTITADESTSTAYMELSSLRSEDTAVYYCARYDYFTGTGVYWGQGTLVTVSS
VL: DIVMTQTPLSLSVTPGQPASISCRSSRSLVHSRGNTYLHWYLQKPGQSPQLLIYKVSNRFIGVPDRFSGSGSGTDFTLKISRVEAEDVGVYYCSQSTHLPFTFGQGTKLEIKR
For B3, the “IL-17A Bioassay Potency (IC50, nM)” value in assay [3] came out at 0.39 nM. Further, in assay [4], the “IC50 (read off the curve), CXCL1 in HT29 cells” value was around 0.1 µg/mL. Further, the “IC50 (read off the curve), IL-6 in 3T3 cells” value in assay [1] was around 0.2 µg/mL. Besides, in assay [2], the Kd was determined as 0.0069 nM, the koff came out at 1.39e-05 s⁻¹ and the on-rate (kon) was 2.01e+06 M⁻¹ s⁻¹.

B4: ABM59 (antibody, V domains shown)
VH: EVKLVESGGGLVKPGGSLKLSCAASGFAFSSYDMSWVRQTPEKRLEWVAYISSGGGNTYYPDTVKGRFTISRDNAKNTLYLQMSSLKSEDTAMYYCAREALTMISTRDYYAMDYWGQGTSVTVSS
VL: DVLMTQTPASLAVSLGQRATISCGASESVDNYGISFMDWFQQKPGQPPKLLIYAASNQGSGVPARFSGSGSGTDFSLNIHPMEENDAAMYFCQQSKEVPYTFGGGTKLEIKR
Take B4: in assay [2], the Kd came out at 0.506 nM, the koff is 0.00057 s⁻¹ and the kon amounted to 1.13e+06 M⁻¹ s⁻¹.

B5: ABM64 (antibody, V domains shown)
VH: QVHVKQSGPELVRPGVSVKISCKGSGYTFTDYAMHWVKQSHAKSLEWIGVISTYSGNTNYNQKFKGKATMTVDKSSSTAYMELARLTSEDSAIYYCARGNYGSDWGQGTLVTVSA
VL: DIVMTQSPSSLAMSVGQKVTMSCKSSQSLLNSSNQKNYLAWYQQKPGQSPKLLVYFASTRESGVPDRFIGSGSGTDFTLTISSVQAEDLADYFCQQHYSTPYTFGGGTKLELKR
B5: in assay [2], the Kd amounted to 0.248 nM, the koff is 0.000311 s⁻¹ and the kon came to 1.25e+06 M⁻¹ s⁻¹.

Values taken from patent publication US20240301048A1 (LANIER BIOTHERAPEUTICS, published 2024).
